Experimental data taken from the supplement of paper PMC10126150.
± gives the standard deviation of the averaged measurements.

Test system: ATP
Experiment: switch fluorescence ratio, 500 uM ATP over buffer (Cy3 cluster intensity, sum of 5 cycles each) (fold (ratio)); higher = stronger signal-on switching upon ATP binding; sequences stand for … in TCGTCGGCAGCGTCAGATGTGTATAAGAGACAGTTTTTTTTTTTTTTTTTTTTTTTTT…TC
Conditions: aptamer strand: ATP DNA aptamer (quencher-CACCTGGGGGAGTATTGCGGAGGAAGG + anchor), 100 nM annealed; ATP concentration: 500 uM
Procedure, shortened: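 Values give the fluorescence ratio for each switch-domain sequence, averaged from per-cluster ratios of summed target-cycle to summed buffer-cycle Cy3 intensity. The Cy3-labelled switching-strand clusters sat on a modified Illumina MiSeq flow-cell, were annealed to 100 nM quencher-labelled ATP aptamer, and were imaged in selection buffer, then after 15 min with 500 uM ATP at 22 °C. Five cycles ran with NaOH stripping and re-annealing between them, and clusters outside 100-1000 RFU were excluded.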
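Also: ATP exposure 15 min at 22 °C before imaging.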

Row | Sequence | switch fluorescence ratio
1 | AGGTAAATTG | 1.01 ± 0.015
2 | AGGTAACTGG | 1.001 ± 0.00096
3 | AGGTAATATG | 0.9867 ± 0.0081
4 | AGGTAATCAT | 1.01 ± 0.05
5 | AGGTAATGTT | 1.01 ± 0.021
6 | AGGTAGAAGT | 1.03 ± 0.012
7 | AGGTAGATAA | 0.99834 ± 0.00052
8 | AGGTAGGGCT | 1 ± 0.029
9 | AGGTAGGGGA | 1.01 ± 0.041
10 | AGGTAGGTCC | 0.998 ± 0.022
11 | AGGTAGGTTC | 0.995 ± 0.019
12 | AGGTAGTATT | 1.04 ± 0.012
13 | AGGTATCCCT | 1.01 ± 0.022
14 | AGGTATGTTT | 1 ± 0.068
15 | AGGTATTGCT | 0.9854 ± 0.0091
16 | AGGTCAGGTG | 3.06 ± 0.33
17 | AGGTCAGTTA | 0.998 ± 0.028
18 | AGGTCCAGGT | 1.262 ± 0.0015
19 | AGGTCCCAGC | 1 ± 0.02
20 | AGGTCCCGTT | 0.993 ± 0.036
21 | AGGTCGGTGG | 1.07 ± 0.11
22 | AGGTCTATTT | 1.008 ± 0.0024

Row | Sequence | switch fluorescence ratio
23 | AGGTCTGGGC | 0.978 ± 0.074
24 | AGGTCTGTGG | 0.982 ± 0.04
25 | AGGTGAAAGT | 0.983 ± 0.029
26 | AGGTGAAGCC | 1.01 ± 0.038
27 | AGGTGACGG | 0.993 ± 0.058
28 | AGGTGACTCG | 1.04 ± 0.017
29 | AGGTGAGGGG | 0.99 ± 0.022
30 | AGGTGATTCT | 1.04 ± 0.025
31 | AGGTGCGGAA | 1.0109 ± 0.00064
32 | AGGTGCGGGG | 1.01 ± 0.042
33 | AGGTGGCGTC | 1.03 ± 0.027
34 | AGGTGGGGGG | 1.01 ± 0.043
35 | AGGTGGGTTG | 1.01 ± 0.055
36 | AGGTGTGGGT | 1.01 ± 0.037
37 | AGGTGTTCGG | 0.976 ± 0.019
38 | AGGTGTTTAC | 1.01 ± 0.011
39 | AGGTTAAAAC | 1.2 ± 0.19
40 | AGGTTAAAGG | 1 ± 0.016
41 | AGGTTAAGAC | 0.99 ± 0.044
42 | AGGTTAAGGT | 1.01 ± 0.02
43 | AGGTTAATTT | 1.01 ± 0.046
44 | AGGTTAGGGG | 0.998 ± 0.037

Row | Sequence | switch fluorescence ratio
45 | AGGTTAGTGT | 0.9584 ± 0.001
46 | AGGTTATAGT | 1.03 ± 0.051
47 | AGGTTCAGTC | 1.02 ± 0.022
48 | AGGTTCCTGT | 0.9944 ± 0.0091
49 | AGGTTCGGCG | 1 ± 0.015
50 | AGGTTCGTAT | 1.01 ± 0.03
51 | AGGTTCTTTG | 0.974 ± 0.026
52 | AGGTTGAAAA | 0.963 ± 0.032
53 | AGGTTGATGG | 0.954 ± 0.043
54 | AGGTTGGAGA | 0.992 ± 0.023
55 | AGGTTGGAGG | 0.976 ± 0.018
56 | AGGTTGGAGT | 1.02 ± 0.04
57 | AGGTTGTGGT | 1.01 ± 0.016
58 | AGGTTGTTAT | 0.969 ± 0.013
59 | AGGTTTAGAC | 1.01 ± 0.021
60 | AGGTTTAGGG | 1.03 ± 0.034
61 | AGGTTTAGTT | 0.993 ± 0.0065
62 | AGGTTTATGT | 1.0099 ± 0.00068
63 | AGGTTTATTG | 0.993 ± 0.0097
64 | AGGTTTGCGG | 1.011 ± 0.0037
65 | AGGTTTGGAC | 1.09 ± 0.17
66 | AGGTTTGGGG | 1.04 ± 0.033

Row | Sequence | switch fluorescence ratio
67 | AGGTTTGTGA | 0.995 ± 0.029
68 | AGGTTTTAGT | 1.013 ± 0.005
69 | AGGTTTTTAA | 1.01 ± 0.043
70 | AGGTTTTTGC | 1.02 ± 0.02
71 | AGGTTTTTGT | 0.982 ± 0.036
72 | AGGTTTTTTT | 0.993 ± 0.017
73 | AGTAAAATAG | 0.968 ± 0.017
74 | AGTAAATTCT | 0.9887 ± 0.0015
75 | AGTAAGGGTT | 1 ± 0.048
76 | AGTAATGGGA | 1.06 ± 0.064
77 | AGTAATTTGT | 0.988 ± 0.019
78 | AGTACAGGCG | 1.024 ± 0.0097
79 | AGTACGAGCC | 1.186 ± 0.0026
80 | AGTACGATAT | 1.14 ± 0.025
81 | AGTACGGGGT | 0.982 ± 0.031
82 | AGTACTCTGT | 1.01 ± 0.039
83 | AGTACTTGCC | 1.03 ± 0.016
84 | AGTAGATTTT | 0.986 ± 0.04
85 | AGTAGCAGCG | 0.963 ± 0.04
